{"source": "paper PMC4541418", "test_system": "Fur (HpFur) (Helicobacter pylori (G27?))", "experiment": "DNase I footprinting", "details": "pOPI and pOPII; 150 uM dipyridyl, 1 mM DTT then 5 mM H2O2, versus no H2O2; 10 mM Tris-Cl pH 7.85, 50 mM NaCl, 10 mM KCl, 0.02% Igepal CA-630, 10% glycerol, 0.1 mM DTT (plus 1 or 5 mM DTT or 5 mM H2O2); 150 uM (NH4)2Fe(SO4)2 or …", "data": [{"substance": "Ppfr probe (apo-operators pOPI, pOPII, pOPIII; holo-operator pOPIV)", "values": [{"measurement": "binding signal (fold higher Fur needed)", "value": 5}]}]}
